Measurements published in patent publication US12410253B2, “Compositions comprising anti-NRP2 antibodies” (aTyr Pharma, Inc., priority 2019, dated 2025).
“Also recorded” adds a separate entry of the source.

B1: aNRP2-11v7: humanized, affinity matured anti-NRP2 antibody, target domain b2; VH SEQ ID NO: 51, VL SEQ ID NO: 52 (antibody, V domains shown)
VH: QVQLVQSGAEVKKPGASVKVSCKASGYTFTSFGISWVRQAPGQGLEWIGEIYPRSGNTYYNENFKGRATMTADKSTSTAYMELRSLRSDDTAVYYCARSSGYYGSTPFPYWGQGTLVTVSS
VL: DIQMTQSPSSLSASVGDRVTITCRASQDISNYLNWYQQKPGKAVKLLIYYTSRLHSGVPSRFSGSGSGTDYTFTISSLQPEDIATYYCQQGNTLPWTFGGGTKVEIK
modifications: Variable heavy chain region; Light chain variable region
B2: aNRP2-10v10: humanized, affinity matured anti-NRP2 antibody, target domain b1, VEGF-C blocking; VH SEQ ID NO: 49, VL SEQ ID NO: 50 (antibody, V domains shown)
VH: EVQLVQSGAEVKKPGATVKISCKVSGFNIKDYYVHWVQQAPGKGLEWMGRIDVEDDETKYAPKFQGRVTITADTSTDTAYMELSSLRSEDTAVYYCATPIYGAREAWFAYWGQGTLVTVSS
VL: DIQMTQSPSSLSASVGDRVTITCTASSSVSSSYLHWYQQKPGKAPKLLIYRTSNLASGVPSRFSGSGSGTDFTLTISSLQPEDFATYYCHQYYRSPPTFGGGTKVEIK
modifications: Variable heavy chain region; Light chain variable region

Tests used:
Format in all cases: cell-based
[1] = biological target: T1, NRP2/FLT4(VEGFR3) (Homo sapiens, UniProt O60462); assay: Split-luciferase receptor dimerization assay, NRP2/FLT4 with VEGF-C; settings: antibody 100 nM; ligand induced dimerization
T1 construct: The complete extracellular domain and transmembrane helices of NRP2a (version 2), NRP2b (version 5); expressed in transfected cells; host or cells: Expi293, transient co-transfection
T1 sequence (O60462 23-859 isoform O60462-3 limits assumed): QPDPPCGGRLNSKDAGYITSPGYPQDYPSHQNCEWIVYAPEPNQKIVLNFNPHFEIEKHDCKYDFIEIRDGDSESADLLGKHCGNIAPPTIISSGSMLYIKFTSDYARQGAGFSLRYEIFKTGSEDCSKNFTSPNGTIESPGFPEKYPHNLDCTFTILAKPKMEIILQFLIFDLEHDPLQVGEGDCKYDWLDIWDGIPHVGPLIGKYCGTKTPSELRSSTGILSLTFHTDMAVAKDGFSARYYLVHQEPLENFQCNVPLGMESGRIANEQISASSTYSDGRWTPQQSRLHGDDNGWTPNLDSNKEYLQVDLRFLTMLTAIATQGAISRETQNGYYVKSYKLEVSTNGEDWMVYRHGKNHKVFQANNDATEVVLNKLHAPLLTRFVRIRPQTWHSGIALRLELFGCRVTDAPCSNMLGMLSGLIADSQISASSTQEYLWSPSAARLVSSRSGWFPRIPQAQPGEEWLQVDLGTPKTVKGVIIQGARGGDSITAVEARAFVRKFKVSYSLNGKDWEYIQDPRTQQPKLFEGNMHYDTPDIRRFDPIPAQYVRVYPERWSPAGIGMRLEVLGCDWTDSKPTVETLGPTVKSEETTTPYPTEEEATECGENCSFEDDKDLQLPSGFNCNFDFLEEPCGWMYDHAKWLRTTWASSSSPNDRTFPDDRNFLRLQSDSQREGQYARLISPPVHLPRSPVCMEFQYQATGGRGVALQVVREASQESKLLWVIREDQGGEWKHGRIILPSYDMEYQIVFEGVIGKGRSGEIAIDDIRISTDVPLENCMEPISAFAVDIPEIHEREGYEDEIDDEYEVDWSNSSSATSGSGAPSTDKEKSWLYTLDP
Method: To further extend the assessment of the biological activity of the anti-NRP2 antibodies, their activity was assessed in a receptor dimerization assay. In brief, vectors encoding a split luciferase pBiT1.1 and pBiT2.1 were obtained from Promega corporation (Madison, Wisconsin). The complete extracellular domain and transmembrane helices of NRP2a (version 2), NRP2b (version 5) (See table N1), FLT4 (VEGFR3), KDR (VEGFR2), and plexin A1 (PLXNA1) were cloned into the vectors and screened for optimal orientation, receptor density, and ligand induced dimerization, following established methods. Expi293 cells (Fisher) were transfected at 1 million cells/mL ˜20 hours prior to the assay with NRP2 and a co-receptor at equal mass amounts. Cells were counted, and 100,000 live cells were plated in a well of a white luminometer plate in Live Cell Imaging Solution (Fisher). Nano-Glo assay substrate (Promega) was added, and the plate was read on a Glomax 96 luminometer at room temperature to establish baseline luminescence. Antibodies were added to the well at 100 nM and the plate was again read to establish a new baseline and monitor the effects of the antibodies on spontaneous receptor dimerization. Depending on the receptor pair, typically 200 nM SEMA3F-p95 (aTyr Pharma), 2 nM VEGF-C(R&D Systems, Minnesota), or 2 nM VEGF165 (R&D Systems, Minnesota) were then added and the plate was again read to measure dimerization of receptors. Normalized responses for each individual well were calculated to the time point prior to addition of ligand, then normalized to no-antibody/no-ligand (baseline signal). Replicates were then processed to give average response and standard deviation. Results are summarized in Table E3 below, and shown graphically in FIGS. 3-10.

[2] = tested on: human lymphatic endothelial cell (HLEC); assay: HLEC migration toward VEGF-C (modified Boyden chamber, xCELLigence); settings: 191.5 pM VEGF-C, 24 hour period
Method: Migration assays were performed using a modified Boyden Chamber with […] pore size membrane, 16-well CIM plate (ACEA Biosciences.) Both sides of the membrane were coated with 5 μg/ml Fibronectin (Sigma) for 30 minutes at 37° C., 5% CO2. 160 μl of 191.5 pM VEGF-C or assay medium (0.1% BSA, ECM) was added to the lower chamber, the upper well attached, 50 ul assay medium added to the upper chamber before replacing the lid, and the plate was incubated for 1 hour at 37° C., 5% CO2 before baseline measurement was taken. HLECs were harvested, washed, and re-suspended in assay medium at 100,000 cells/well with aNRP2 antibody or control proteins and incubated for 30 minutes at 37° C., 5% CO2. Cells were added to the plate and incubated at room temperature for 30 minutes. Plate was inserted into xCELLigence RTCA DP (ACEA Biosciences) instrument, and migration was measured real-time every 5 minutes over a 24 hour period (2 wells per condition).

[3] = tested on: phospho-Akt levels in U251 glioblastoma cells; assay: Semaphorin 3F mediated inhibition of AKT phosphorylation in U251 cells; settings: antibody 10 μg/mL, 25 nM Sema3F 1 hour
Method: As shown schematically in FIG. 17, the treatment of cells with Sema3F should specifically block PI3K activity via NRP2 mediated interaction with plexin A1, thereby resulting in reduced phospho-Akt levels. To directly test the ability of the anti-NRP2 antibodies to block this effect, lysates were prepared following standard protocols (MesoScale Discovery, Phospho (Ser473)/Total Akt Assay Whole Cell Lysate Kit #K15100D). Serum starved and confluent U251 cells (Sigma, Cat. 09063001) were treated with 10 nM rapamycin (Sigma, Cat. 553211, 30 minutes), and blocking antibodies or controls were added (10 μg/mL, 30 minutes), followed by 25 nM Sema3F or serum free media for 1 hour in triplicate. Lysate protein concentrations were determined by BCA assay and samples were equalized to 0.4 mg/mL. Phospho and Total AKT were measured following the manufacturer's instructions and percent phosphorylation was calculated by dividing phosphorylated AKT relative units by total AKT relative units. Blocking of Sema3F for each antibody or control was determined by comparing percent phosphorylation of Sema3F treated cells to percent phosphorylation of non-Sema3F treated cells.

| Molecule | effect on NRP2-VEGFR3 (FLT4) heterodimerization (in words) [1] | migration of HLEC cells towards VEGF-C [2] | blocking of the Sema3F induced decrease in intracellular phospho-Akt levels [3] |
| --- | --- | --- | --- |
| B1 | ability to inhibit | inhibited by both NRP2 antibodies to levels consistent with positive control antibodies; also recorded: effective block the migration of HLEC cells towards VEGF-C in a dose dependent manner | blocked the reduction in phospho-Akt levels; also recorded: block semaphorin 3F mediated inhibition of AKT phosphorylation; also recorded: can be blocked |
| B2 | potently inhibit | inhibited by both NRP2 antibodies to levels consistent with positive control antibodies; also recorded: effective block the migration of HLEC cells towards VEGF-C in a dose dependent manner | not blocked |
